Patent publication US20120039865A1 (YALE UNIVERSITY, published 2012)
Values belong to the binder of their own block, whether it stands above or below them.

Columns and labels:
[1] = molecular target: T1, human SorLA (GenBank Accession No. U60975) expressed in COS-7 cells (human, UniProt Q92673 82-2214); assay: AP staining of transfected COS-7 cells
T1 construct: whole, on cells

[2] = molecular target: T2, mouse SorCS1 (GenBank Accession No. BC007486) expressed in COS-7 cells (mouse, UniProt Q9JLC4 34-1167); assay: AP staining of transfected COS-7 cells
T2 construct: whole, on cells
T2 sequence (looked up): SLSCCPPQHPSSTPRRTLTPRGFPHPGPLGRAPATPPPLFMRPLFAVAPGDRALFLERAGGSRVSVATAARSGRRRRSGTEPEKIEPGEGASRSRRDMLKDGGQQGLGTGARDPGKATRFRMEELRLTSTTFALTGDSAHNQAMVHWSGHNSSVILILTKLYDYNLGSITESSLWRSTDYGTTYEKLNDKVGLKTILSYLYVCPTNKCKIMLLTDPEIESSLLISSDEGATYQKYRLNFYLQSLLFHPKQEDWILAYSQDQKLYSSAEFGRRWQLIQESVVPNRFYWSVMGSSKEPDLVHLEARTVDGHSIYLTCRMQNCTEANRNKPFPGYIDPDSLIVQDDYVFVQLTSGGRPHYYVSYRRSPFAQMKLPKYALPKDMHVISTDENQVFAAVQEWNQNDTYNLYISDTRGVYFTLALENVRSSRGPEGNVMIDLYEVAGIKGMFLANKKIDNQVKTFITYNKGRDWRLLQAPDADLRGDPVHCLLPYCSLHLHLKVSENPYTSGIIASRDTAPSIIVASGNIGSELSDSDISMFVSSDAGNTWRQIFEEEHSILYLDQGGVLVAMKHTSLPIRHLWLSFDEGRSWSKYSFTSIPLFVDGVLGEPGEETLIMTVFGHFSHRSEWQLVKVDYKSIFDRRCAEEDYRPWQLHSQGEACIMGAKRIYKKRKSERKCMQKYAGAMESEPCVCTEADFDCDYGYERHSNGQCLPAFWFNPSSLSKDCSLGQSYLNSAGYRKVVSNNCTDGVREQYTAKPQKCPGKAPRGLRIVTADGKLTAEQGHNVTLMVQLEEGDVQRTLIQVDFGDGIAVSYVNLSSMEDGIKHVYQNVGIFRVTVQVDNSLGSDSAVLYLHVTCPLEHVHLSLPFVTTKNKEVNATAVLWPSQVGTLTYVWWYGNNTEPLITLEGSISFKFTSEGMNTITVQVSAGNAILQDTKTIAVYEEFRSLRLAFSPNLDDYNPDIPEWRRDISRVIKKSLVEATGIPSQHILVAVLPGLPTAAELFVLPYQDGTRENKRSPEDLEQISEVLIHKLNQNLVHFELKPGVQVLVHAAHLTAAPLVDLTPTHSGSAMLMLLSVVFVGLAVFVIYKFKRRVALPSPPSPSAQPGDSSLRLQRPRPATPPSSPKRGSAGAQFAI

[3] = molecular target: T3, mouse sortilin-1 (Sort1; GenBank Accession No. NM 019972) expressed in COS-7 cells (mouse, UniProt Q6PHU5 74-825); assay: saturation binding of AP-PGRN to Sort1-transfected COS-7 cells, bound AP activity (OD); Sort1-transfected COS-7 cells, FIG. 2B
T3 construct: cDNA clone from a mouse library, transfected into COS-7 cells; also called PGRN-R; PGRN receptor
T3 sequence: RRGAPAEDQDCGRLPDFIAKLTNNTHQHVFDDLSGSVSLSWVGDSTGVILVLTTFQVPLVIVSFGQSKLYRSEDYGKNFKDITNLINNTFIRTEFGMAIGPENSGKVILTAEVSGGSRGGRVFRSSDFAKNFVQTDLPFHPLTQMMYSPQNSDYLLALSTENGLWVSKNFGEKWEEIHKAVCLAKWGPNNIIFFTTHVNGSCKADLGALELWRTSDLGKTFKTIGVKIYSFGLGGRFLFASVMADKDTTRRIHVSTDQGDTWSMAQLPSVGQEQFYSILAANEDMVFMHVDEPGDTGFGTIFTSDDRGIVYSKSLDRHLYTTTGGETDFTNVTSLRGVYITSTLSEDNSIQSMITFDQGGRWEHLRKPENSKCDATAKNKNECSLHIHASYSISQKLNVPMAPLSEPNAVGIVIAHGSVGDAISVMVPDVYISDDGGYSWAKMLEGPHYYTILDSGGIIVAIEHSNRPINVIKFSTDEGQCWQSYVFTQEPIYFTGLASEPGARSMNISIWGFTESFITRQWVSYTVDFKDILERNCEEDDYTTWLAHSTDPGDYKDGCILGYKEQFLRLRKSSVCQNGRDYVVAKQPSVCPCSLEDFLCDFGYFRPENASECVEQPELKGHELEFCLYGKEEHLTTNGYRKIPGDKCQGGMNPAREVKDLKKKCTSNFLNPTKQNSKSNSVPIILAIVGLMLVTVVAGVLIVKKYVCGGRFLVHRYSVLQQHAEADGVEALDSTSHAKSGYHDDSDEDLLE
Description: (§1) FIG. 2B is a graph depicting the saturation analysis of binding of AP-PGRN to COS-7 cells transfected with the PRGN-R, sortilin. The binding of AP-PGRN, measured by the optical density (OD units) of AP ligand bound, was determined as a function of ligand concentration (nM).
(§2) To determine the molecular nature of the neuronal binding site of PGRN, expression cloning experiments utilizing AP-PGRN as a tagged ligand were conducted. COS-7 (ATCC No. CRL-1651) cells were transfected with expression vectors containing mouse cDNAs using FUGENE® 6 according to manufacturer's specifications (Roche). An arrayed adult mouse brain cDNA library (OriGene) of 225,000 clones was screened in pools of 5,000 at a time, as well as a library consisting of 352 individual preparations of cDNAs encoding transmembrane proteins (GFC-transfection array panel, OriGene). […] In both cases, unlabeled 100 nM PGRN displaced binding (FIG. 2A, lower-right panel, and FIG. 3A, right panel).

[4] = molecular target: T3, mouse sortilin-1 (Sort1; GenBank …); assay: saturation binding of AP-tagged ligand to COS-7 cells transfected with sortilin (PGRN-R), bound AP read as optical density of the reaction product
Description: as §1, §2

[5] = molecular target: T4, rat sortilin (Sort1) on E18 rat cortical neurons (rat, UniProt O54861 74-825); assay: saturation binding of AP-PGRN to cultured cortical neurons (FIG. 1D); neuronal PGRN binding sites, identified by the filing as Sort1; cultured cortical neurons (FIG. 1D), species not stated
T4 construct: Native receptor on cultured rat neurons
T4 sequence: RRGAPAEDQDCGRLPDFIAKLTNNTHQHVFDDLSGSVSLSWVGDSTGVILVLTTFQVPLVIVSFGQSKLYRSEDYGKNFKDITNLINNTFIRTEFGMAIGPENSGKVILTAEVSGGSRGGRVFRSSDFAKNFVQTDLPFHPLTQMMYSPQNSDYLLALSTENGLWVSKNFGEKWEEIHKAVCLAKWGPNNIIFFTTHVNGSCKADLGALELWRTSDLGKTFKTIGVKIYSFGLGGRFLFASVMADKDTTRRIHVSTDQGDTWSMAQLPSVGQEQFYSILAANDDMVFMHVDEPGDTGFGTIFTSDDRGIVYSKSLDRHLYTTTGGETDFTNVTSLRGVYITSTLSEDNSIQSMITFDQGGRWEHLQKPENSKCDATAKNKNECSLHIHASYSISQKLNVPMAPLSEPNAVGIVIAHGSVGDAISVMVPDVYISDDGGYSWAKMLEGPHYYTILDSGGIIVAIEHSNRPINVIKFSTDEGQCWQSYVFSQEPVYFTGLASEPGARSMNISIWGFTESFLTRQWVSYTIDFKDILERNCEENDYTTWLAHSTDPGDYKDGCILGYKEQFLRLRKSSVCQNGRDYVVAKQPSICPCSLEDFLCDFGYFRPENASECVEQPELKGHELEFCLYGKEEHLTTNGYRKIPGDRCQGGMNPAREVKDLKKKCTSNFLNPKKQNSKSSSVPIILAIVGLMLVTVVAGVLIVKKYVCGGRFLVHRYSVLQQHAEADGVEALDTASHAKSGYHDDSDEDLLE

[6] = molecular target: T3, mouse sortilin-1 (Sort1; GenBank …); assay: AP staining of transfected COS-7 cells
[7] = molecular target: T4, rat sortilin (Sort1) on E18 rat …; assay: AP staining of cultured E18 rat cortical neurons (the neuronal PGRN binding site is identified by the filing as Sort1)
Description: Rat (Sprague-Dawley) cortical neurons were isolated from E18 embryos and cultured in vitro for 3-21 days. Cultures were maintained in Neurobasal-A medium supplemented with B27, GLUTAMAX™ (2 mM), sodium pyruvate (1 mM), penicillin, and streptomycin. The binding of 10 nM AP-PGRN or 10 nM AP was detected as a dark reaction product produced by alkaline phosphatase (AP). Binding was measured as follows. The AP tagged ligand (in NBA) was incubated with the cortical neurons for 1 hr at 4° C., washed three times with HBH buffer, fixed with formaldehyde, and after washing again with HBH the neurons were incubated in a 67° C. oven to inactivate the endogenous AP. The tagged AP was then visualized using AP substrate 5-bromo-4-chloro-3-indolyl phosphate/nitro blue tetrazolium, which results in a dark precipitate. […] The addition of 100 nM Flag-PGRN displaced 10 nM AP-PGRN (FIG. 1C, middle panel).

T1 sequence (Q92673 82-2214, one chain of several): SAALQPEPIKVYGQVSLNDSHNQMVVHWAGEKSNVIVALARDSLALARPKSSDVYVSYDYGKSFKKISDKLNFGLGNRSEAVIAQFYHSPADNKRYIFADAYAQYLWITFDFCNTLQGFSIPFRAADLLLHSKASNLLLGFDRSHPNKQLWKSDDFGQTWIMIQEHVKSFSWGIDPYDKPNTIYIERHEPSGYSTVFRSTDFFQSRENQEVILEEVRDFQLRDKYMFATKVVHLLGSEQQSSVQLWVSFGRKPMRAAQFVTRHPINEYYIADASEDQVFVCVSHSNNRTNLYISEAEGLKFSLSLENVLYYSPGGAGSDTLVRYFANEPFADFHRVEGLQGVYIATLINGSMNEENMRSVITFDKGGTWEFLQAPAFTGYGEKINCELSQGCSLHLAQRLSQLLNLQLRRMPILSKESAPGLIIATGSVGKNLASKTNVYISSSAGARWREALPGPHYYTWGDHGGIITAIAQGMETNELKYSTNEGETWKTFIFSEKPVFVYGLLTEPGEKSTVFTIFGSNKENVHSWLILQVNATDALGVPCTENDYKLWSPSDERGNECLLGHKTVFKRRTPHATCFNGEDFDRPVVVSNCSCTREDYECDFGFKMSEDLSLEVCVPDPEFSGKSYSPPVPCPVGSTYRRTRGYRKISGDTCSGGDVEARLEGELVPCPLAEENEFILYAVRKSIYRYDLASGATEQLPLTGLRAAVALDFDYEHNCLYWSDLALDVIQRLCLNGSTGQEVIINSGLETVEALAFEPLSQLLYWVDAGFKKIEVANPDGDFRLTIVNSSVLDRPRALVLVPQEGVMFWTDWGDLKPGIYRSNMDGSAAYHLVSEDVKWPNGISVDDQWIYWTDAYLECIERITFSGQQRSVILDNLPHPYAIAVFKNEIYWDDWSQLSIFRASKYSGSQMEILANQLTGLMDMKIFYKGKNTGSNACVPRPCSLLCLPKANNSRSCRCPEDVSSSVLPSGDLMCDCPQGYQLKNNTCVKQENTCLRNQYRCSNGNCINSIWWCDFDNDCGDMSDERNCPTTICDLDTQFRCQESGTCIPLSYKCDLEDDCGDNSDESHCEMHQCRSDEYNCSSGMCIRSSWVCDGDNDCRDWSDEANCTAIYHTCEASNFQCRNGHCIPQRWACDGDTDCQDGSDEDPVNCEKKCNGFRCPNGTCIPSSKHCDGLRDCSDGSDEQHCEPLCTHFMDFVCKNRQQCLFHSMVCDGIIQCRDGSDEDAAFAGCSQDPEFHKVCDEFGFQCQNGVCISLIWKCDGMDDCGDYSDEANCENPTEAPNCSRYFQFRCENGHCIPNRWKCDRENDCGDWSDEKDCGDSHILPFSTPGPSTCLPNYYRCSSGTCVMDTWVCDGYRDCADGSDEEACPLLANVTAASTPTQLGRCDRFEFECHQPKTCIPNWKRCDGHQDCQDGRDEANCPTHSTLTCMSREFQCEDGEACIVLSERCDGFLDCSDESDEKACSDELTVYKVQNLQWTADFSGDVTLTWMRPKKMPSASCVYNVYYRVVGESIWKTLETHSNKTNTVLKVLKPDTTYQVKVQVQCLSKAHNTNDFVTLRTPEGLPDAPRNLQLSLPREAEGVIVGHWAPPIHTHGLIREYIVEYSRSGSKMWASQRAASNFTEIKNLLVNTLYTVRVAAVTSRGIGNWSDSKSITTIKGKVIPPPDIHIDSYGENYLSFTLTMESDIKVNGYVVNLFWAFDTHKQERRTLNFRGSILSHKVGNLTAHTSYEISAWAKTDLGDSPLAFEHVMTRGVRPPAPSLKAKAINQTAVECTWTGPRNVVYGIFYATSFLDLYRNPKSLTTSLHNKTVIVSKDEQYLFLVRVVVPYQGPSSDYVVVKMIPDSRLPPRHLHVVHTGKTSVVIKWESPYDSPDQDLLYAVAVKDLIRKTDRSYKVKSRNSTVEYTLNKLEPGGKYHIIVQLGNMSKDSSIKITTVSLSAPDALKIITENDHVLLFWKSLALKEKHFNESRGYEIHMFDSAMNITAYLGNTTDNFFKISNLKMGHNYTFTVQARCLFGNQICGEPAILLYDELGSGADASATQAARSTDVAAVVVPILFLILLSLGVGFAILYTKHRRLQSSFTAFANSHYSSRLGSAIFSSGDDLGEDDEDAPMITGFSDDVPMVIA

binding result [1]: no binding (tested: 120 nM)
binding result [2]: no binding (tested: 120 nM)
Kd [3]: 6 nM
EC50 (read off the curve) [4]: ~3 nM
Kd [5]: ~20 nM
B1: AP-PGRN (alkaline phosphatase fused to human progranulin, huPGRN, GenBank Accession No. BC010577) (ligand)
chain: TRCPDGQFCPVACCLDPGGASYSCCRPLLDKWPTTLSRHLGGPCQVDAHCSAGHSCIFTVSGTSSCCPFPEAVACGDGHHCCPRGFHCSADGRSCFQRSGNNSVGAIQCPDSQFECPDFSTCCVMVDGSWGCCPMPQASCCEDRVHCCPHGAFCDLVHTRCITPTGTHPLAKKLPAQRTNRAVALSSSVMCPDARSRCPDGSTCCELPSGKYGCCPMPNATCCSDHLHCCPQDTVCDLIQSKCLSKENATTDLLTKLPAHTVGDVKCDMEVSCPDGYTCCRLQSGAWGCCPFTQAVCCEDHIHCCPAGFTCDTQKGTCEQGPHQVPWMEKAPAHLSLPDPQALKRDVPCDNVSSCPSSDTCCQLTSGEWGCCPIPEAVCCSDHQHCCPQGYTCVAEGQCQRGSEIVAGLEKMPARRASLSHPRDIGCDQHTSCPVGQTCCPSLGGSWACCQLPHAVCCEDRQHCCPAGYTCNVKARSCEKEVVSAQPATFLARSPHVGVKDVECGEGHFCHDNQTCCRDNRQGWACCPYRQGVCCADRRHCCPAGFRCAARGTKCLRREAPRWDAPLRDPALRQLL
notes: Made in HEK293T cells from pAPtag-5; also called AP-PRGN; AP tagged ligand; not shown: alkaline phosphatase (AP) tag of expression vector pAPtag-5

binding result [6]: no binding (tested: 20 nM)
binding result [7]: no binding (tested: 10 nM)
B2: alkaline-phosphatase (AP) alone (enzyme, UniProt P05187 23-511, looked up)
chain: IIPVEEENPDFWNREAAEALGAAKKLQPAQTAAKNLIIFLGDGMGVSTVTAARILKGQKKDKLGPEIPLAMDRFPYVALSKTYNVDKHVPDSGATATAYLCGVKGNFQTIGLSAAARFNQCNTTRGNEVISVMNRAKKAGKSVGVVTTTRVQHASPAGTYAHTVNRNWYSDADVPASARQEGCQDIATQLISNMDIDVILGGGRKYMFRMGTPDPEYPDDYSQGGTRLDGKNLVQEWLAKRQGARYVWNRTELMQASLDPSVTHLMGLFEPGDMKYEIHRDSTLDPSLMEMTEAALRLLSRNPRGFFLFVEGGRIDHGHHESRAYRALTETIMFDDAIERAGQLTSEEDTLSLVTADHSHVFSFGGYPLRGSSIFGLAPGKARDRKAYTVLLYGNGPGYVLKDGARPDVTESESGSPEYRQQSAVPLDEETHAGEDVAVFARGPQAHLVHGVQEQTFIAHVMAFAACLEPYTACDLAPPAGTTDAAHPG
notes: Control for the AP tag
